Data on 30 sequences can be found in the nanobody polyreactivity screen of Harvey et al. (2022).

This data set can be described thus: yeast display, Sf9 membrane polyspecificity reagent, FACS + sequencing; frameworks hold sequencing errors. The method in brief: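 Galactose induction of a Saccharomyces cerevisiae BJ5465 synthetic nanobody display library ran 36–48 hours. The cells were then stained for 1 hour at 4 °C with 10% biotinylated, detergent-solubilized Sf9 membrane reagent, pulled down on streptavidin microbeads and FACS-sorted into low and high (top ~1%) gates on expression and reagent-binding fluorescence. Labels for polyreactivity follow the gate of origin.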
Take “QVQLGDSGGGLVQAGGSLRLSCAASGSIFNKYAMGWYRQAPGKEREFVAPITQGGGRTYYADSVKGRFTISRDNAKNNVYLQMNSLKPEDTAVYYCIYNFNYPYYRYGYWGQGTQVTVSS”: the “polyreactivity (PSR sort gate)” value was “high polyreactivity”.

On to “QVQLGESGGGFVQAGGSLRLSCAASGSTFSYNAMGWYIQASGKESEFVAAISSSGGRTYYADSVKWRFTISRDYEKNTVYLQMKSLKPEDTAVYYCPAKSRLPTQGLGMYYWGKGTQVTVSS”, for which the “polyreactivity (PSR sort gate)” value is “high polyreactivity”.

In the case of “QVQLGESGGGLLQAGGSLRLSCAASGRSFSVNFMGWYRQAPGKDTELVAAIDTSGGSTYYADSVKGRFTISRDNAKNTVYLQMNCLNPEHTAVYVCASGFYGYRSSCYWGQGTQVTVSS”, the “polyreactivity (PSR sort gate)” value is “low polyreactivity”.

“QVQLGESGGGLVQAGGILRLSCAASGSIFARYAMGWYRQPPGKERELVAAISSNSASTYYADSVKGRFTISRDNAKNTVYLQMNCLIPEDTAVYYCATAYRSYWLNDYWGQGTQVTVSS”: the “polyreactivity (PSR sort gate)” value is on record as “low polyreactivity”.

As for “QVQLGESGGGLVQAGGSLRLICAASGRTIRQYAMGRYRQAPGKERELVAAIDSGGSTYYADSVKGRFTISRDNAKNTVYLQMNSLKPEYTAVYYCAKGPSWKYYSYTLDYWGQGTQVTVSS”, the “polyreactivity (PSR sort gate)” value was “low polyreactivity”.

As for “QVQLGESGGGLVQAGGSLRLSCAASGFIFSYNAMGWYRQAPWKERELVAAISWRGGSTYYADSVKGRFTISRDNAKNTVYLQMNSLKPEDTAVYYCAAYLWRLWPSGYYYWGQGTQVTVSS”, the “polyreactivity (PSR sort gate)” value was “high polyreactivity”.

In the case of “QVQLGESGGGLVQAGGSLRLSCAASGFIFYVYAMGWYRQAPGKERELVAAISWSGDRTYYADSVKGRFTISRDNAKNTVYLQINSLKPEDTAVYYCAVERSVYSYYYWGQGTQVTVSS”, the “polyreactivity (PSR sort gate)” value is given as “high polyreactivity”.

Regarding “QVQLGESGGGLVQAGGSLRLSCAASGFPFQGNAMGWSRQAPGKERELLAAISYDGGSSYYADSVKGRFTISRDNAKNTVYLQMNSLKPEDTAVYYCAAYVVTWYYYWGQGTQVTLSS”, the “polyreactivity (PSR sort gate)” value is given as “high polyreactivity”.

Regarding “QVQLGESGGGLVQAGGSLRLSCAASGFTFAYYAMGWYRQAPGKERELVAAISERGGSTYYADSVKGRFTISRDNAKNTVYLQMNILKPEDTAVYYCARTFWDYPWYQSSYYSWGQGTQVTLSS”, the “polyreactivity (PSR sort gate)” value is on record as “low polyreactivity”.

For “QVQLGESGGGLVQAGGSLRLSCAASGFTFPVYAMGWYRQAPGKERELVAAISTSAGSTYYADSVKGRFTISRDNAKNTVYLQMNSLKPEDTAVYYCAARRRAFGSTYNYWGQGTQVTVSS”, the “polyreactivity (PSR sort gate)” value is “high polyreactivity”.

For “QVQLGESGGGLVQAGGSLRLSCAASGGIINYYAMGWYRQAPGKEWELVAAITSAGSTYADSVKGRFTISRDNAKNTVYLQMNSLKPDDSAVYYCNAVGFVLKVGYYLIGYAKWYDYWGQGTHVTVSS”, the “polyreactivity (PSR sort gate)” value is given as “low polyreactivity”.

On to “QVQLGESGGGLVQAGGSLRLSCAASGIIFRYYAMGWYRQAPGKERELVAAISSSGVSTYYADSVKGRFTISRDNAQNTVYLQMNSLKPEDTAVYYCAAVTTWRMDYWGQGTQVTVSS”, for which the “polyreactivity (PSR sort gate)” value is on record as “high polyreactivity”.

Turning to “QVQLGESGGGLVQAGGSLRLSCAASGITFRWYAMGWYRQAPGKERELVAAITSVDSTDYADSVKGRFTISRDNAKNTVYLQMNSLKPEDTAVYYCAAQPYDWFYYYYVIFPHYEYWGQGTQVTVSS”, the “polyreactivity (PSR sort gate)” value is reported as “low polyreactivity”.

Consider “QVQLGESGGGLVQAGGSLRLSCAASGNIFYANAMGWSRQAPGTERELLAAISGSGGSTYADSVKGRFTISRDNAKNTVYLQMNSLKPVDTAVYYCNASVLDAIFYKSVGYDYWGQGTQVTVSS”, for which the “polyreactivity (PSR sort gate)” value is “low polyreactivity”.

Turning to “QVQLGESGGGLVQAGGSLRLSCAASGRIFPWNTMGWYRQAPGKERELVAGITSGGSTNYADSVKGRFTISRDNAKNTVYLLMNCLKPEATAVYYCAARGYYWYISGVYEYEYWGQGTQVTLSS”, the “polyreactivity (PSR sort gate)” value is listed as “low polyreactivity”.

For “QVQLGESGGGLVQAGGSLRLSCAASGRTFGLYAMGWYRQAPGKERELVAAISRGTSTNYADSVKGRFTISRDNAKNTVYLEMYSLKPEDTAVYYCNARRKFVGKWGDYWGQGTQVTVSS”, the “polyreactivity (PSR sort gate)” value is recorded as “low polyreactivity”.

“QVQLGESGGGLVQAGGSLRLSCAASGRTFGYNAIGWYRQAPGKEMELVAVIRSGGSTYYADSVKGRFTISRDNAKNTVYLQMNSLKPEDTAVYYCNADVLPTWYSPELDYWGQGTQVTVSS”: the “polyreactivity (PSR sort gate)” value is reported as “low polyreactivity”.

Turning to “QVQLGESGGGLVQAGGSLRLSCAASGRTFYGYPMGWYRQAPGKERELVAAISRNGASTFYADSVKGRFTISRDNAKNTVYLQMNSLKPEDTAVYYCNARSWRHTDTSFEYWGQGTQVTVSS”, the “polyreactivity (PSR sort gate)” value is given as “high polyreactivity”.

In the case of “QVQLGESGGGLVQAGGSLRLSCAASGRTFYINTMGWYRQAPGKEREFVAAISSGGGRTYYADSVKGRFTISRDNAKNTVYLQMNSLKPEDTAVYYCAAYLGGAEDTYRFGYWGQGTQVTVSS”, the “polyreactivity (PSR sort gate)” value is on record as “high polyreactivity”.

Turning to “QVQLGESGGGLVQAGGSLRLSCAASGRTIGYYAMGWYRQAPGKERELVAAISVSGTNTYYADSVKGRFTISRDNAKNTVNLQMNSLKPEDTAVYYCAARKVSGVYRAFYYWGQGTQVTVSS”, the “polyreactivity (PSR sort gate)” value was “high polyreactivity”.

As to “QVQLGESGGGLVQAGGSLRLSCAASGRTITRNAMGWYRQAPGKERELVAAISYSGGSTYYADSVKGRFTISRDNAKNTVYLQMNSLKPEDTAVYYFNAATSRRSIRYDYWGQGTQVTVSS”, the “polyreactivity (PSR sort gate)” value is recorded as “high polyreactivity”.

For “QVQLGESGGGLVQAGGSLRLSCAASGSIFGGNTKGWYRQAPGKERELVAAINGGVTTNYADSVKGRFTISRDNAKNTVYLQMNSLKPEDTAVYYCNAVDFGPVVLRLYYWGQGTQVTVSS”, the “polyreactivity (PSR sort gate)” value is given as “low polyreactivity”.

On to “QVQLGESGGGLVQAGGSLRLSCAASGSIFQKYTMGWYRQAPGKERELVAAITRSGGSTYYADSVKGRFTISRDNAKNTVDFQMNSLKPEDTAVYYCAAPAAGDEYDYWGQVTQVTVSS”, for which the “polyreactivity (PSR sort gate)” value was “high polyreactivity”.

Turning to “QVQLGESGGGLVQAGGSLRLSCAASGSIFTYNPMGWYRQAPGKERELVAAITIDDGSTYYADSVKGRFTISRDNAKNTVYLQMNSLKPEDTAVYYCAADFYGVSYSGGEMDYWGLGTQVTVSS”, the “polyreactivity (PSR sort gate)” value is on record as “low polyreactivity”.

As to “QVQLGESGGGLVQAGGSLRLSCAASGSIFYFNAMGWYRQAPGKERELVAAISWSGRTYYADSVKGRFTISRDNAKNTVYLQMNSLKPEDTAVFYCAAKNTGRYYWGQGTQVTVSS”, the “polyreactivity (PSR sort gate)” value is on record as “high polyreactivity”.

Turning to “QVQLGESGGGLVQAGGSLRLSCAASGSILTPYSMGWYRQAPGKERELDAAITFRGGSTYYADSVKGRFTISRDNAKNTVYLQMNSLKPEDTAVYYCAAGWYWSYWDPYDYWGQGTQVTVSS”, the “polyreactivity (PSR sort gate)” value is given as “high polyreactivity”.

On to “QVQLGESGGGLVQAGGSLRLSCAASGSTFYYYAMGWYRQAPGKERELVASINYSAGRTYYADSVKGRFTISRDNAKNTVYLQMNSLKPEDTAVYYCAAETPSGYYPQQYDYYWGQGTQVTVSS”, for which the “polyreactivity (PSR sort gate)” value is recorded as “high polyreactivity”.

Regarding “QVQLGESGGGLVQAGGSLRLSCAGSGRTFQHYFMGWYREAPGKDRELVASITNDDSTNYADSVKGLFTISRDNAKNTVYLQMNRLKPEDTAVYYCAADWTDVVPGYDYWGQGTQVTVSS”, the “polyreactivity (PSR sort gate)” value is recorded as “low polyreactivity”.

Consider “QVQLGESGGGLVQAGGSLRLSCAPSGNPFTIYAMGWYRPAPGKERELVASSTGRGGSTYYADSVKGRFTISRDNEKNTVYLQMNSLKPEDTAVDYCNADYNSYLYRPPTTRDYWGQGTQVTVSS”, for which the “polyreactivity (PSR sort gate)” value is reported as “low polyreactivity”.

Regarding “QVQLGESGGGLVQAGGSLRLSCASSGRTFVVNAMGWYSQAPGKATEFDAAISYRGDSTYYAVSVKGRFTISRDNAKNTVYLQMNSLKPEATAVYYCAARVLGPGRRYYYWGQCTQVTVSS”, the “polyreactivity (PSR sort gate)” value is given as “high polyreactivity”.
